assay: soluble on expression in E. coli; label from the status in PepcDB or PDB records

Row | Sequence | soluble on expression in E. coli
1 | MGSDKIHHHHHHMKRLDGIPESMLIPLIARAKEYEYEKPIIKDALSKKIFDGLDDIYKNVTCDDMSQIGISIRSVIIDSVTKRLIKDNKNLIVINIGCGLDTRFQRFNNEKISWIDLDVPESIEIRKTFFKETDSYKMIAKSMLDYSWIEDVINYKFFNSKSNILFIFEGVLMYFDESVMTKLLHTIIKKFGDHNLTFAIEFCSKTIANNTKRHKSVSKLSSQPVFKYGYNDLNELDKVLPNKMKVINEYNYFDYHKKRWGLFGYCRYIPYLKKRLNNKIVIMEYKPAKLITHN | not soluble
2 | ALAKRIDAALILKDGRVVKGSNFENLRDSGDPVELGKFYSEIGIDELSFWDITASVEKRKTMLELVEKVAEQIDIPITVGGGIYDFETASELILRGADKVEINTAAVENPSLITQIAQTFGSQAVVVYIAAKRVDGEFMVFTYSGTKNTGILLRDWVVEVEKRGAGEIVLGSIDRLGTKSGYDTEMIRFVRPLTTLPIIAHRGAGKTEHFLEAFLAGADAAKADSVFHSREIDVRELKEYLKKHGVNVRLEGLGSLEHHHHHH | soluble
3 | MCVKVACVGGGPAGLYLSILLKRQDPAHDVTVYERDPEGSTYGWGVTYWRGLLDRLRELDPGSARAVEEHSVRWRDGVAHVGGLATRHHGDEGFGIGRHRLLAILAARARELGVRLEFEHPVTGANPPAADLVVAADGAGSALRTHHADHFGTEITGGRDHYVWLGTTKVFDAFTFAFVETDHGWIWAYGYGFGPEGSTCVVECAPGTWTGLGLDRADEAEGLGLLEKLFADVLDGHPLSARSSGRASAAWPVFRTLTNRTWSRDNLVLLGDAAHTTHYSIGAGTTLALEDAMALATALRERDTLPDALAHYERERRAALLPVQSAARLSAQWYENLPRYIHLPPEQMFALLGQRHSPLLPHLPPRLYYRIDRAAGRLETLRRVKRRLGPVIARTVQARRLAAGDGRARSGRPDAVPAHRGLEHHHHHH | not soluble
4 | MSVNEADLNAVEEQLGRAPRGVLDISYRSPDGVPGVVMTAPKLDDGTPFPTLYYLTDPRLTTEASRLEVALVMKWMTDRLSTDEELRADYQRAHEHFLAKRNAIEDLGTDFSGGGMPDRVKCLHVLIAYALAEGPDHFRLGTEAVAMAAEHGDLRGTAIPEDWPTVQDLGINMEDFDFSRAGGA | not soluble
5 | MGHHHHHHSHPPERQINLSNIRAGNLARRAAATQPDAKDTPDEPWAFPAREFLRKKLIGKEVCFTIENKTPQGREYGMIYLGKDTNGENIAESLVAEGLATRREGMRANNPE | not soluble
6 | MSHSLRYFVTAVSRPGFGEPRYMEVGYVDNTEFVRFDSDAENPRYEPRARWIEQEGPEYWERETRRAKGNEQSFRVDLRTALRYYNQSAGGSHTLQWMAGCDVESDGRLLRGYWQFAYDGCDYIALNEDLKTWTAADMAAQITRRKWEQAGAAERDRAYLEGECVEWLRRYLKNGNATLLRTDPPKAHVTHHRRPEGDVTLRCWALGFYPADITLTWQLNGEELTQEMELVETRPAGDGTFQKWASVVVPLGKEQKYTCHVEHEGLPEPLTLRWGKE | soluble
7 | AHHHHHHGSAELWEIVSFLDEYLKISEYPDKSSNGLQVEGKEEVNTIAFAVDACLDTIVKARAFNADMLIVHHGLIWGGVKYVKGLFAKRVKELLKSNMNLYAAHLPLDAHPEVGNNAQLLKLLGLEPKEKFGEYHGVMIGYIGEFEEEKPLPLIAQMLAEKLPVDYVKSYEFGVQEIKRVGVVSGGGGFAVEEASEKGVDLFITGEFTHEDYRAAEDLRLSVIAAGHYATETLGVKALMPILREKFGVKTIFIDSPTGL | not soluble
8 | MPLTDPAKLQIVQQRVFLKKVCRKCGALNPIRATKCRRCHSTNLRLKKKELPTKKG | soluble
9 | MGSDKIHHHHHHMEKSEEKEIICRMFNSPLPHPSQNHLLAALPAMELGDLIPHLELIHMRAGDILCEAGDQLPYAYFPASAIISLHYILENGASSEIANVGREGMLGVSLFMGGETSSNWATVQIPGFAYRLKAAFLSQELKRGGQLQWILLRYSQALITQIAQIGVCNRYHTIEQQLCRWFLLTLDRLDSSELSMTQELIANALGVSRESVAGVAGKLQGRGIIRYQRGHITVLNRTGLETGACECYETIKKEFDDALDDVRKPTLHQGDQSSKTLPLL | not soluble
10 | MGSDKIHHHHHHMPTITAKIQIHVSDNQAESLKITTNAYRKACNWLSKHIFETKNLNQVNLNNLYYSDLRNQFRLKSQMAQSVMKTVIARYKSAKSNGHEWSLIDFKLAEYDLVWNRDYSLTKNQFSVNTLEGRLKLNYERKAMKKYFNSTWKFGTAKLVHKYKKWFLHIPMTKEYQTLDFADVNNIVGVDLGINFLATTYDSQSKTTFYNGNIVKHKRGKFKATRKQLQTRQTPSSRKKIKQIGSRENRYVTDVNHQITKALVEAYPRGTMFVLEDLTGVRSATEKVRVKNRYVSVSWAFYQFRQMLEYKAELNGQKVIVVDPKYTSQTCPKCGNIEKANRNKKLHTFKCKNCQYQSNDDRISAMNLHRKGIKHISVVTTGV | not soluble
11 | MSLFSDVAETSSFVFAVAGADDEVVLETIRLALKQKLGKFLLFGKKEDKTLTANESVTWIQTDTAEAAAQGAILAVKNKEADILVKGFIPTATLMHHVLKKENGLRTDQLLSQIAIFDIPTYHKPLLITDCAMNVAPKTKEKIAITENALAVAHQIGITNPKIALLSAVEEVTAKMPSTLEAQEVVQHFGNQISVSGPLALDVAISKEAALHKGITDSSAGEADILIAPNIETGNALYKSLVYFAGAKVGSAVVGAKVPIVISSRNDSPENKLASFILTVRLVEKEGHHHHHH | soluble
12 | MAHHHHHHMRPSHKRQAQRQHPRQQCSVAHKAQRAPSSVHGTSGVEHLPRDAVVHVALRKQHRPAGQAHRRIKRHRVVPRRHKVAPHKYHSGARHAHSPTHRHRVLAQQEVAVNKRRNRAANCRNTALHRHAQPQRRLHKKPVHVQRTARRQRHAANHQHANSVAEHRRQLRARDVQHAPRQIHVV | soluble
13 | MQNMFDGVQLFVEVVEAGGFAKAGKRLSLTRSTIGKAIARLEMRLGVQLFQRTTRVQSLTEDGQQYYERCLRAIKELRAGEAMLEQGRREVAGRLHVSLPVLFGRQCVAPILRTYAREHPQLELELNFSDHHVDLIADGFDLAVRNGPLGNGTTLRARRLGNQRKILCASPTYLAARGKPHTLADLADHDLLTYCRNDRNMAWTLPDATGALVDIPITSRLRCNDLEVIADTAVDGMGVAWLPYWLLMERMQRGELIGIWGDRPSAVIECHVVWPAAQHVPLRSRLAINLLAAELPKYLEA | not soluble
14 | MMSILRSQCQISLDVTLSVPNVSEGIVRLLDPQTNTEIANYPIYKILFCVRGHDGTPESDCFAFTESHYNAELFRIHVFRCEIQEAVSRILYSFATAFRRSAKQTPLSATAAPQTPDSDIFTFSVSLEIKEDDGKGYFSAVPKDKDRQCFKLRQGIDKKIVIYVQQTTNKELAIERCFGLLLSPGKDVRIVTALIRFGSMGKVQMESRMLFGELESKIPTFSSCNEEPPKDKVLFMTTAVDLVITEVQEPVRFLLETKVRVCSPNERLFWPFSKRSTTENFFLKLKQIKQRERKNNTDTLYEVVCLESLEHHHHHHLEHHHHHHLEHHHHHHLEHHHHHHLEHHHHHHLEHHHHHHLEHHHHHH | not soluble
15 | MTAVTAGKLIGVGVGPGDPELLTVKAVKAIKSADVIVFHAKPNGQSAAHRIAESYIRQDQVLELLEYPVTTGVTEHPGGYAGAMAAFYASVGERLRDHLIEGKNVVVLALGDPMLYSSYQHIHRLLSEDFNAEIIPGIPSITSAADVLGKPLCEDDDVLTILPGTLPHSELVARLSDSDGAVVMKLGRTFDKVRKAMIEAGVADRAHVVVRVGMADQHSVPVMEADPQAIPYFSVAVVPSITDTNGDSGDKQQGEVVVVGLGPGGHRWTTPEVMAELKQATDIVGYSTYVNRVPQQAGQRRHLSDNKVEAERAAMALDMAKQGRKVAVVSSGDPGVFAMAAAVLETADDDQWREVPVRIIPGMTAAQAVASRVGAPLGHDFGMISLSNRLKPFEIVEKRIRALASADMAFACYNPASKERRWQVARMKEIVSEYQAGSTPVIVARAVGSDQETVTVTTLEDFDPDIVDMRTMVIIGASTTKTYQGGDGVRVFTSRWYT | not soluble
16 | MATRPKTIWESFLSPVVRFLMDEDKWRRYAQSIDWEKESDRFRRTDVIIPSYYTSQNFHGIEGGYLNSSAAVTYDPITEYVLPPNETLVRQALIDGVKVQPRRILDLGCGTGSTTLMLKQAFPQADVIGLDLSPYMLVRAEDKARTADLDISWRHGNAEKTSFPNASFDLVTTSLLFHETPVEVSQTILQECFRLLVAGGQVIILDGNQKSLRQLNWLNDIFEEPYIREYAADNLDARMGAAGFVGVQTEDLWLIHQVTSGIKPILATDTNQIKDRQYMPAIDNNNLEGLESPAFGIVALEHHHHHH | not soluble
17 | MSTDEERIYSIALTQIPGVGHIGAKRLVDGMGSATDVFRYRTELPDRLPGVNRAVVAALDSPQALKRAEQEYEFARNNRISCFTLADEDYPSRLRECDDAPVVLFFKGKANLNALHIINMVGTRNATDYGKHICVSFLQELQMLCPDVLVVSGLAYGIDINAHRSALSVELPTVGVLAHGLDRIYPSLHRKTAIDMLRQGGLLTEFLSGTNPDKHNFISRNRIVAGISDATIVVESAAKGGSLITADIAGSYHRDCFAFPGRVTDEYSKGCNQLIQDNKAVLLESASDFVKTMGWDSDLKSVKPETVQRNLFPDLSAEELRIVDILGKLGDLQINALMVQADIPINKISAILFELEMKGVIRVLAGGVYQLLR | not soluble
18 | MSLSAGLRFTLEVDGLPPDAFAVVSFHLNQSFSSLFSLDLSLVSQQFLSLEFAQVLDKMAYLTVWQGDDVQRRVKGVVTWFELGENDKNQMLYSMKVCPPLWRTGLRQNFRIFQNEDIESILATILKENGVTEWSPLFSEPHPSREFCVQYGETDYDFLCRMAAEEGIFFYEEHAQKSTDQSLVLCDTVRYLPESFEIPWNPNTRTEVSTLCISQFLYSAQIRPSSVVTKDYTFKRPGWAGRFDQEGQHQDYQRTQYEVYDYPGRFKGAHGQNFACWQMDGWRNNAEVARGTSRSPEIWPGRRIALTGHPQANLNREWQVVASELHGEQPQAVPGRRGSGTTLNNHFAVIPADRTWRPQPLLKPLVDGPQSAVVTGPAGEEIFCDEHGRVRVKFNWDRYNPSNQDSSCWIRVAQAWAGTGFGNLAIPRVGQEVIVDFLNGDPDQPIIMGRTEGHHHHHH | not soluble
19 | MESLAAKVVERLNRAESAAELRFCHDELARELRRCLAPEQMKQLAGDVVCVHEAILRRAFFLAERETMKRSVGIRPPAWCWYVMGSIGRREPTIWTDQDHGILFDCPEEEEAACYEFIRHMAAVGVDMLHEAGYPYCSGYVMATNKRWAQSVRGWEQQLSSYLDSGWPNDIRFLLIAMDMRPLYGETELAEEGRRMLFSAVAKRPPLLAVRPAWVRRYRVKVPNGGWRAPTVS | not soluble
20 | MEVEIKFKIKLEDFLHTLNTFNPEFVRYEEQEDVYFEVPRPKLLRIRGVHNLKKYYLTFKEILDENNEEFYEVEFEIGDFEKAVEVFKRLGFKIQATIKKKRWVYKLNGVTLEVNRVEGIGDFVDIEVISDSPEEAKEKIWEVAKMLGLKEEDVEPRLYLELINELSGRSSLEHHHHHH | soluble
21 | MPVLSIISCRMFEDELAHIISSDKEMKQLIVVENKDSFGLLRKLRSDNCLPRTSPLDRVPFLLGNGHGSGFMTISKPLLILPFFRKIHEKMKIKAAQELTVVVNLLKLGLHDDIEILRSEVYKNIKEMTSFSDGILLFYCSCGGAFENLEENCLEFDCPLYWFKDGNEEVVVDCISAAIGGNAAYDELMYTCRGTGALYFTSMWASSWKEMREERKKSRNFNENYLKDPRYSRVVKLDTGLSYDPDFHKNVRDFARTFDMEIIEVKGSVELAEKSYRTAKKGVVQHTLKLEHHHHHH | not soluble
22 | MERKWIKKKAHIVPTHAMYGLAQVLKDIGIDVISLVNYALNLHDYHYNGFEPGFSRYSKKEEVFRDLITLVKETRKVIDIYYSKYEVKEILGKINELIKELTEGNKLEHHHHHH | not soluble
